Measurements taken from patent US20200157212A1 (Pfizer, published 2020).
Residue numbers refer to the chain shown, from its start.

T1: Terbium (Tb) labeled-SNAP tagged ROBO2 expressed on HEK293 cells (Homo sapiens (Human), UniProt Q9HCK4 22-1378, terbium label on the SNAP tag)
T1 construct: also called Tb-labeled ROBO2 cells; ROBO2 expressing cells; not shown: SNAP tag
T1 sequence: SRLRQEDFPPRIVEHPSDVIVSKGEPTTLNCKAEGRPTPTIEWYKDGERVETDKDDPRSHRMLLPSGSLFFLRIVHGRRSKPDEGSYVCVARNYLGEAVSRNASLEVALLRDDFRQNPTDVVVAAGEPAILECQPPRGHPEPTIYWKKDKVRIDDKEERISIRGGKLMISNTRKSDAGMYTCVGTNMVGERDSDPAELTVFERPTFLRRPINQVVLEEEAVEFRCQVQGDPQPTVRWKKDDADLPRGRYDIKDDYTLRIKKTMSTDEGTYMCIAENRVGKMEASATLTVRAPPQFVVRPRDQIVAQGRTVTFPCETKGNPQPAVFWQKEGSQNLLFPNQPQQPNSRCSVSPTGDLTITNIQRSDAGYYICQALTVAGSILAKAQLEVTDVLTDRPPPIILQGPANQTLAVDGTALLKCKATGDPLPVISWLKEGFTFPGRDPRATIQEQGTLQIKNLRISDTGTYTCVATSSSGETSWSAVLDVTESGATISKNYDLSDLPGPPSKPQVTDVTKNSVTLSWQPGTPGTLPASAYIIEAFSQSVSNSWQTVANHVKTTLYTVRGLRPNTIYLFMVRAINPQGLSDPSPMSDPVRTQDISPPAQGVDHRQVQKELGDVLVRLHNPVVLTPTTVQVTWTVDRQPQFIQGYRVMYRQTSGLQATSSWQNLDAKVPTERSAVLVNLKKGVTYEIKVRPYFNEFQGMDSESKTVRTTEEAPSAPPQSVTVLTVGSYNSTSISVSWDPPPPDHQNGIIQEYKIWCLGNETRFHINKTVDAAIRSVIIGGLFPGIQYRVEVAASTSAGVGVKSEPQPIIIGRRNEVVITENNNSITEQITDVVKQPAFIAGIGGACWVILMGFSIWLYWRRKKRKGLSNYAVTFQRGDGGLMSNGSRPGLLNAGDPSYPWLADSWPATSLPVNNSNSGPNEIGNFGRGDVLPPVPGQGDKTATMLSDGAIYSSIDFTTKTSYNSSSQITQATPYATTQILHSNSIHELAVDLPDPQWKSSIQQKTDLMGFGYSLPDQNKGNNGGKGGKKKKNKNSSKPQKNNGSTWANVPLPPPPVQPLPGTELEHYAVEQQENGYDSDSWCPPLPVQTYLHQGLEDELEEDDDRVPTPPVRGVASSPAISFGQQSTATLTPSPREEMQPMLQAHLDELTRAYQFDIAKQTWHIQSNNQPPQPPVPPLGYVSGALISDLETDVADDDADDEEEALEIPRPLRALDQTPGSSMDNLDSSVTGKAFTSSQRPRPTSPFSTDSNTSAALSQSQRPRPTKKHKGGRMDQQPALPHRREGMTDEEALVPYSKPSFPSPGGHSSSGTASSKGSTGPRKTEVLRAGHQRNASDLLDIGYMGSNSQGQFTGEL

B1: 93H2 (antibody, human IgG1, kappa, V domains shown)
VH: EVQLVQSGAEVKKPGASVKVSCKASGYTFTGYYMHWVRQAPGQGLEWMGWINPNSGATNFPQKFQGRVTMTRDTSITTAYMDLSRLRSDDTAVYYCARESGDDAFDIWGQGTMVTVSS
VL: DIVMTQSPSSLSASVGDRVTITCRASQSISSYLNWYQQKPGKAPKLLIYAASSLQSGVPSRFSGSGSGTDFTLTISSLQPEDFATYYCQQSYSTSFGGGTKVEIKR
notes: also called parental 93H2; 93H2 mAb
B2: CTIR2-14 (antibody, human IgG1, kappa, V domains shown)
VH: B1 VH with T30R, Y33A, N52D, N54R, S55T, A57L, N59K
VL: DIVMTQSPSSLSASVGDRVTITCRASQKISSYLNWYQQKPGKAPKLLIYAASSLQYGVPSRFSGSGSGTDFTLTISSLQPEDFATYYCQQSLELGFGGGTKVEIKR
notes: CDR-shuffled IgG
B3: CTIR2-16 (antibody, human IgG1, kappa, V domains shown)
VH: B1 VH with T30R, Y33A, N52D, N54R, S55T, A57L, N59K
VL: B2 VL with L92V, E93G, G95F
notes: CDR-shuffled IgG
B4: Abcs55 (antibody, human IgG1, kappa, V domains shown)
VH: B1 VH with N54K, S55D, A57D, N59E
VL: B2 VL with K28S, L92Y, E93S, L94T, G95S
notes: chain-shuffled IgG
B5: Abcs35 (antibody, human IgG1, kappa)
heavy: EVQLVQSGAEVKKPGASVKVSCKASGYTFTGYYMHWVRQAPGQGLEWMGWINPKNGDTEFPQKFQGRVTMTRDTSITTAYMDLSRLRSDDTAVYYCARESGDDAFDIWGQGTMVTVSSASTKGPSVFPLAPSSKSTSGGTAALGCLVKDYFPEPVTVSWNSGALTSGVHTFPAVLQSSGLYSLSSVVTVPSSSLGTQTYICNVNHKPSNTKVDKKVEPKSCDKTHTCPPCPAPEAAGAPSVFLFPPKPKDTLMISRTPEVTCVVVDVSHEDPEVKFNWYVDGVEVHNAKTKPREEQYNSTYRVVSVLTVLHQDWLNGKEYKCKVSNKALPAPIEKTISKAKGQPREPQVYTLPPSREEMTKNQVSLTCLVKGFYPSDIAVEWESNGQPENNYKTTPPVLDSDGSFFLYSKLTVDKSRWQQGNVFSCSVMHEALHNHYTQKSLSLSPGK
light: DIVMTQSPSSLSASVGDRVTITCRASQSISSYLNWYQQKPGKAPKLLIYAASSLQSGVPSRFSGSGSGTDFTLTISSLQPEDFATYYCQQSVGLFFGGGTKVEIKRTVAAPSVFIFPPSDEQLKSGTASVVCLLNNFYPREAKVQWKVDNALQSGNSQESVTEQDSKDSTYSLSSTLTLSKADYEKHKVYACEVTHQGLSSPVTKSFNRGEC
notes: fully human IgG1; VH of Ab96 with VL of Ab123
B6: Abcs25 (antibody, human IgG1, kappa, V domains shown)
VH: B1 VH with N54K, S55D, A57D, N59E
VL: B2 VL with K28S, Y56S, L92V, E93G, G95S
notes: chain-shuffled IgG
B7: Abcs20 (antibody, human IgG1, kappa, V domains shown)
VH: B1 VH with N54K, S55N, A57D, N59E
VL: B2 VL with K28S, Y56S, L92V, E93G, G95S
notes: chain-shuffled IgG
B8: Abcs40 (antibody, human IgG1, kappa, V domains shown)
VH: B1 VH with N54K, S55D, A57D, N59E
VL: B2 VL with K28S, Y56S, L92V, E93G, G95F
notes: chain-shuffled IgG
B9: CTIR2-15 (antibody, human IgG1, kappa, V domains shown)
VH: B1 VH with T30R, Y33A, N52D, N54R, S55T, A57L, N59K
VL: B2 VL with L92V, E93G, G95S
notes: CDR-shuffled IgG

target: T1, Terbium (Tb) labeled-SNAP tagged ROBO2 …; experiment: HTRF competition, competitor d2-SLIT2-N, ROBO2 HEK293 cells
Outline: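 HEK293 cells expressing Tb-labeled SNAP-ROBO2 were incubated 1 hour with 5 nM d2-SLIT2-N plus antibody, read as the 665/620 nm HTRF ratio. Controls were no antibody (maximal) and cells alone (minimal). Screening used 1 nM antibody; IC₅₀ came from 11-point, 5-fold dilutions starting at 1500 nM.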

Row | Binder | IC50 [nM]
1 | B1 | 4.22
2 | B2 | 0.037
3 | B3 | 0.056
4 | B4 | 0.057
5 | B5 | 0.041
6 | B6 | 0.042
7 | B7 | 0.04
8 | B8 | 0.048
9 | B9 | 0.05
